Bridges are numbered along the chain shown (N, C = ends).
Tests used:
[1] = target: CD58 (Homo sapiens) (UniProt P19256); conditions: cited from earlier work
[2] = target: T1, CD58 protein (purified cell-adhesion domain, domain 1) (UniProt P19256 29-215); test: SPR
T1 sequence (looked up): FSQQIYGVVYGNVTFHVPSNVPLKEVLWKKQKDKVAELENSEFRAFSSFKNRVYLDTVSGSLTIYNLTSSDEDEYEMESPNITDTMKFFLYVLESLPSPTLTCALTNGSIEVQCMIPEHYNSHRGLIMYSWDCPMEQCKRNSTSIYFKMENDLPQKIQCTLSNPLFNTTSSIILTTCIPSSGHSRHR

## CD2 (from UniProt P06729)
[1]
  Kd: 10 µM

## cyclo(CTKSIPPICFPDGR) (disulfide 1-9 (inferred)) [sunflower trypsin inhibitor SFTI-1]
[2]
  Kd: > 500 µM

B1: SFTI-a (peptide)
peptide: cyclo(CKASAPPSCYDGDD)
modifications: disulfide 1-9
SMILES: C[C@@H]1NC(=O)[C@H](CCCCN)NC(=O)[C@@H]2CSSC[C@H](NC(=O)[C@H](CO)NC(=O)[C@@H]3CCCN3C(=O)[C@@H]3CCCN3C(=O)[C@H](C)NC(=O)[C@H](CO)NC1=O)C(=O)N[C@@H](Cc1ccc(O)cc1)C(=O)N[C@@H](CC(=O)O)C(=O)NCC(=O)N[C@@H](CC(=O)O)C(=O)N[C@@H](CC(=O)O)C(=O)N2
[2]
  koff: 0.00329 s⁻¹
  kon: 224 M⁻¹ s⁻¹
